B1: E3 ubiquitin-protein ligase COP1 (Arabidopsis thaliana (Mouse-ear cress)), P43254 (parent)
chain: MEEISTDPVVPAVKPDPRTSSVGEGANRHENDDGGSGGSEIGAPDLDKDLLCPICMQIIKDAFLTACGHSFCYMCIITHLRNKSDCPCCSQHLTNNQLYPNFLLDKLLKKTSARHVSKTASPLDQFREALQRGCDVSIKEVDNLLTLLAERKRKMEQEEAERNMQILLDFLHCLRKQKVDELNEVQTDLQYIKEDINAVERHRIDLYRARDRYSVKLRMLGDDPSTRNAWPHEKNQIGFNSNSLSIRGGNFVGNYQNKKVEGKAQGSSHGLPKKDALSGSDSQSLNQSTVSMARKKRIHAQFNDLQECYLQKRRQLADQPNSKQENDKSVVRREGYSNGLADFQSVLTTFTRYSRLRVIAEIRHGDIFHSANIVSSIEFDRDDELFATAGVSRCIKVFDFSSVVNEPADMQCPIVEMSTRSKLSCLSWNKHEKNHIASSDYEGIVTVWDVTTRQSLMEYEEHEKRAWSVDFSRTEPSMLVSGSDDCKVKVWCTRQEASVINIDMKANICCVKYNPGSSNYIAVGSADHHIHYYDLRNISQPLHVFSGHKKAVSYVKFLSNNELASASTDSTLRLWDVKDNLPVRTFRGHTNEKNFVGLTVNSEYLACGSETNEVYVYHKEITRPVTSHRFGSPDMDDAEEEAGSYFISAVCWKSDSPTMLTANSQGTIKVLVLAA
partner: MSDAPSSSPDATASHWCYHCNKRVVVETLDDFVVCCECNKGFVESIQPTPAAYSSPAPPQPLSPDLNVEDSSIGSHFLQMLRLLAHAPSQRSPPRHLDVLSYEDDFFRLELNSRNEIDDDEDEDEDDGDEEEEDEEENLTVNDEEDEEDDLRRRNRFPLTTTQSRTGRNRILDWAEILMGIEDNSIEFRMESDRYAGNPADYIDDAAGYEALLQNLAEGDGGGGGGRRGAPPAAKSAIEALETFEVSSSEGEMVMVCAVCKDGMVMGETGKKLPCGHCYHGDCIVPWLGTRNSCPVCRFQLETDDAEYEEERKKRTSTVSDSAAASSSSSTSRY
B2: E3 ubiquitin-protein ligase CIP8 (Arabidopsis thaliana (Mouse-ear cress)), Q9SPL2 (parent)
chain: B1 partner
partner: B1 chain

Variants of: B1
Conditions: with cip8_arath CIP8, Q9SPL2

| effect of a mutation on the interaction | Variant |
| --- | --- |
| disrupting interaction | C67A;H69A;C72A;C75A |

Variants of: B2
Conditions: with cop1_arath COP1, P43254

| effect of a mutation on the interaction | Variant |
| --- | --- |
| disrupting interaction | C275A;H277A;H280A;C283A |
